Measurements as given in the supplement of paper PMC10567573.

B1: INTS4 (parent)
chain: YSSGEFSSGRKWGDDAPKEEVDTG
B2: CAMK2A (parent)
chain: CIQQILEAVLHCHQMGVVHRDLKP

Variants of: B1
Assay: protein stability index of a GFP-peptide fusion (GPS, HEK-293T) (PSI 1-6); higher = more stable
Conditions: c terminus: a fixed tail appended
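Also: lentivirally expressed fusions sorted by FACS into six bins by GFP to DsRed ratio, PSI derived from sequencing read proportions per bin multiplied by bin number.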

First: YSSGEFSSGRKWGDDAPKIEVDTG [E19I]
Second: YSSGEFSSGRKWGDDAPKHEVDTG [E19H]
The protein stability index of the first is higher: 2.32 for the first, 2.09 for the second.

Compared with YSSGEFSSHRKWGDDAPKEEVDTG [G9H], YSSGEFSSGRKWGDDAPKESVDTG [E20S] is lower in protein stability index: 2.43 for the first, 1.91 for the second.

Compared with YSSGEFPSGRKWGDDAPKEEVDTG [S7P], YSSGEFSPGRKWGDDAPKEEVDTG [S8P] is higher in protein stability index: 1.67 for the first, 3.25 for the second.

First: YSSGEFSHGRKWGDDAPKEEVDTG [S8H]
Second: YSSGEISSGRKWGDDAPKEEVDTG [F6I]
The protein stability index of the first is lower: 2.25 for the first, 4.67 for the second.

Going from YSSGEDSSGRKWGDDAPKEEVDTG [F6D] to YSDGEFSSGRKWGDDAPKEEVDTG [S3D], the protein stability index falls from 5.75 to 5.15.

Going from YSRGEFSSGRKWGDDAPKEEVDTG [S3R] to YSSGEFSSGRKWGDDAPPEEVDTG [K18P], the protein stability index falls from 4.47 to 3.08.

First: YSSGEFSSGRKWGDDAPYEEVDTG [K18Y]
Second: YSSGEFSSGRKWGDDAPIEEVDTG [K18I]
The protein stability index of the first is lower: 2.62 for the first, 2.73 for the second.

Compared with YSSGEFSSGRHWGDDAPKEEVDTG [K11H], YSSGEFSSGRKWGDDTPKEEVDTG [A16T] is lower in protein stability index: 2.45 for the first, 2.28 for the second.

First: YSSGEFSSGRKWGDDRPKEEVDTG [A16R]
Second: YSSGEFSSGRKWGDDGPKEEVDTG [A16G]
The protein stability index of the first is higher: 2.71 for the first, 2.16 for the second.

Going from YSSGEFSSGRKWGDDAPKEETDTG [V21T] to YSSGEFSSGRKWGDDAPKEEVDTA [G24A], the protein stability index falls from 3.31 to 2.59.

First: YSSGEFSSGRKWGDDAPKEEVDTD [G24D]
Second: YSSGEFSSGRKWGDDAPKEEVDTY [G24Y]
The protein stability index of the first is lower: 2.16 for the first, 2.28 for the second.

Going from YSSGEFSSGRKWGDQAPKEEVDTG [D15Q] to YDSGEFSSGRKWGDDAPKEEVDTG [S2D], the protein stability index rises from 2.12 to 5.77.

First: YLSGEFSSGRKWGDDAPKEEVDTG [S2L]
Second: YSSGEFSSGRKWGDDAPKEEVATG [D22A]
The protein stability index of the first is higher: 3.48 for the first, 2.06 for the second.

YSSGEFSSGWKWGDDAPKEEVDTG [R10W] showed a protein stability index of 1.65.

Variants of: B2
Assay: as above
Conditions: c terminus: a fixed tail appended

Going from CIQQILEAVLHCHQFGVVHRDLKP [M15F] to CIQQILEAVLHCHQCGVVHRDLKP [M15C], the protein stability index rises from 1.84 to 2.85.

First: CIQQILEAVLHCHQSGVVHRDLKP [M15S]
Second: CIQQILEAVLHCHQYGVVHRDLKP [M15Y]
The protein stability index of the first is lower: 2.6 for the first, 2.85 for the second.

First: CIQQILEAVLHCHQGGVVHRDLKP [M15G]
Second: CIQQILEAVLHCHQKGVVHRDLKP [M15K]
The protein stability index of the first is lower: 2.05 for the first, 2.42 for the second.

Going from CIQQILEAVLHCHQQGVVHRDLKP [M15Q] to CIQQILEAVLHCHQHGVVHRDLKP [M15H], the protein stability index rises from 1.22 to 2.24.

First: CIQQILEAVLHCHQVGVVHRDLKP [M15V]
Second: CIQQILEAVLHCHQIGVVHRDLKP [M15I]
The protein stability index of the first is higher: 2.57 for the first, 2.31 for the second.

First: CIQQILEAVLHCHQPGVVHRDLKP [M15P]
Second: CIQQILEAVLHCHQDGVVHRDLKP [M15D]
The protein stability index of the first is higher: 1.81 for the first, 1.8 for the second.

Compared with CIQQILEAVLHCHQEGVVHRDLKP [M15E], CIQQILEAVLHCHQWGVVHRDLKP [M15W] is higher in protein stability index: 2.68 for the first, 3.1 for the second.

Compared with CIQQILEAVLHCHQNGVVHRDLKP [M15N], CIQQILEAVLHCHQMGVVHRDQKP [L22Q] is higher in protein stability index: 1.52 for the first, 1.62 for the second.

Compared with CIQQILEAVLHCHQMGVVHRDKKP [L22K], CIQQILEAVLHCHQMGVVHRDRKP [L22R] is lower in protein stability index: 2.53 for the first, 1.03 for the second.

First: CIQQILEAVLHCHQMGVVHRDWKP [L22W]
Second: CIQQILEAVLHCHQMGVVHRDPKP [L22P]
The protein stability index of the first is higher: 2.28 for the first, 1.82 for the second.

Going from CIQQILEAVLHCHQMGVVHRDNKP [L22N] to CIQQILEAVLHCHQMGVVHRDFKP [L22F], the protein stability index rises from 2.03 to 2.66.

First: CIQQILEAVLHCHQMGVVHRDYKP [L22Y]
Second: CIQQILEAVLHCHQMGVVHRDTKP [L22T]
The protein stability index of the first is lower: 1.95 for the first, 3.01 for the second.

Compared with CIQQILEAVLHCHQMGVVHRDAKP [L22A], CIQQILEAVLHCHQMGVVHRDEKP [L22E] is higher in protein stability index: 2.87 for the first, 2.96 for the second.

Going from CIQQILEAVLHCHQMGVVHRDSKP [L22S] to CIQQILEAVLHCHQMGVVHRDCKP [L22C], the protein stability index rises from 2.34 to 3.02.

Compared with CIQQILEAVLHCHQMGVVHRDGKP [L22G], CIQQILEAVLHCHQMGVVHRDIKP [L22I] is higher in protein stability index: 2.03 for the first, 3.05 for the second.

Compared with CIQQILEAVLHCHQMGVVHRDHKP [L22H], CIQQILEAVLHCHQMMVVHRDLKP [G16M] is higher in protein stability index: 1.99 for the first, 3.07 for the second.

Compared with CIQQILEAVLHCHQMNVVHRDLKP [G16N], CIQQILEAVLHCHQMDVVHRDLKP [G16D] is lower in protein stability index: 3.04 for the first, 2.41 for the second.

First: CIQQILEAVLHCHQMYVVHRDLKP [G16Y]
Second: CIQQILEAVLHCHQMQVVHRDLKP [G16Q]
The protein stability index of the first is lower: 1.91 for the first, 3.06 for the second.

First: CIQQILEAVLHCHQMPVVHRDLKP [G16P]
Second: CIQQILEAVLHCHQMCVVHRDLKP [G16C]
The protein stability index of the first is lower: 2.69 for the first, 2.97 for the second.

First: CIQQILEAVLHCHQMVVVHRDLKP [G16V]
Second: CIQQILEAVLHCHQMEVVHRDLKP [G16E]
The protein stability index of the first is lower: 1.3 for the first, 3.1 for the second.

First: CIQQILEAVLHCHQMWVVHRDLKP [G16W]
Second: CIQQILEAVLHCHQMIVVHRDLKP [G16I]
The protein stability index of the first is lower: 1.79 for the first, 2.24 for the second.

Compared with CIQQILEAVLHCHQMRVVHRDLKP [G16R], CIQQILEAVLHCHQMHVVHRDLKP [G16H] is higher in protein stability index: 1.6 for the first, 2.16 for the second.

Compared with CIQQILEAVLHCHQMKVVHRDLKP [G16K], CIQQILEAVLHCHQMGVVHRDLKM [P24M] is higher in protein stability index: 1.11 for the first, 3.07 for the second.

Compared with CIQQILEAVLHCHQMGVVHRDLKC [P24C], CIQQILEAVLHCHQMGVVHRDLKS [P24S] is higher in protein stability index: 1.95 for the first, 2.12 for the second.

Compared with CIQQILEAVLHCHQMGVVHRDLKY [P24Y], CIQQILEAVLHCHQMGVVHRDLKW [P24W] is lower in protein stability index: 3 for the first, 1.82 for the second.

Compared with CIQQILEAVLHCHQMGVVHRDLKF [P24F], CIQQILEAVLHCHQMGVVHRDLKG [P24G] is higher in protein stability index: 2.58 for the first, 2.88 for the second.

Going from CIQQILEAVLHCHQMGVVHRDLKQ [P24Q] to CIQQILEAVLHCHQMGVVHRDLKL [P24L], the protein stability index falls from 1.86 to 1.78.

Compared with CIQQILEAVLHCHQMGVVHRDLKD [P24D], CIQQILEAVLHCHQMGVVHRDLKR [P24R] is lower in protein stability index: 2.99 for the first, 2.44 for the second.

Compared with CIQQILEAVLHCHQMGVVHRDLKI [P24I], CIQQILEAVLHCHQMGVVHRDLKK [P24K] is lower in protein stability index: 3.7 for the first, 2.31 for the second.

Compared with CIQQILEAVLHCHQMGVVFRDLKP [H19F], CIQQILEAVLHCHQMGVVLRDLKP [H19L] is lower in protein stability index: 3.5 for the first, 1.9 for the second.

Compared with CIQQILEAVLHCHQMGVVRRDLKP [H19R], CIQQILEAVLHCHQMGVVCRDLKP [H19C] is lower in protein stability index: 2.92 for the first, 1.84 for the second.

First: CIQQILEAVLHCHQMGVVERDLKP [H19E]
Second: CIQQILEAVLHCHQMGVVIRDLKP [H19I]
The protein stability index of the first is higher: 3.29 for the first, 2.01 for the second.

Going from CIQQILEAVLHCHQMGVVSRDLKP [H19S] to CIQQILEAVLHCHQMGVVGRDLKP [H19G], the protein stability index rises from 2.53 to 3.33.

Work on CIQQILEAVLHCHQMGVVMRDLKP [H19M] yielded a protein stability index of 2.59.
